Source: patent US20250011363A1, “OPTIMIZED SHORTENED PEPTIDE THAT BINDS TO ACETYLCHOLINE RECEPTOR, AND USE THEREOF” (SKINMED CO., LTD., priority 2021, published 2025)

B1: 6mer-2-1015 (peptide)
peptide: RDEMKR
B2: 6mer-2-1016 (peptide)
peptide: RNEEKR
B3: 6mer-2-1017 (peptide)
peptide: RAPVRR
B4: 6mer-2-1018 (peptide)
peptide: RPTKKK
B5: 6mer-2-1019 (peptide)
peptide: RNTWKK
B6: 6mer-2-1020 (peptide)
peptide: KHDKKR
B7: 6mer-2-1021 (peptide)
peptide: RYTPKR
B8: 6mer-2-1022 (peptide)
peptide: KCNPRR
B9: 6mer-2-1023 (peptide)
peptide: KAEFKR
B10: 6mer-2-1024 (peptide)
peptide: RFHNKR
B11: 6mer-2-1025 (peptide)
peptide: RCSHRR
B12: 6mer-2-1026 (peptide)
peptide: KENHRK
B13: 6mer-2-1027 (peptide)
peptide: KTPVKK
B14: 6mer-2-1028 (peptide)
peptide: KPEHRR
B15: 6mer-2-1029 (peptide)
peptide: KEEFKK
B16: 6mer-2-1030 (peptide)
peptide: RAPFKK
B17: 6mer-2-1031 (peptide)
peptide: RAWERK
B18: 6mer-2-1032 (peptide)
peptide: KETVKR
B19: 6mer-2-1033 (peptide)
peptide: KMDEKK
B20: 6mer-2-1034 (peptide)
peptide: KHSWRR
B21: 6mer-2-1035 (peptide)
peptide: RPPVKK
B22: 6mer-2-1036 (peptide)
peptide: KAKNKR
B23: 6mer-2-1037 (peptide)
peptide: KIHWKK
B24: 6mer-2-1038 (peptide)
peptide: KHWERK
B25: 6mer-2-1039 (peptide)
peptide: RNHFRK
B26: 6mer-2-1040 (peptide)
peptide: KYAWRK
B27: 6mer-2-1041 (peptide)
peptide: RACDKR
B28: 6mer-2-1042 (peptide)
peptide: KKMFRK
B29: 6mer-2-1043 (peptide)
peptide: RDKGKK
B30: 6mer-2-1044 (peptide)
peptide: KHTDKK
B31: 6mer-2-1045 (peptide)
peptide: RHAHRR
B32: 6mer-2-1046 (peptide)
peptide: RNSEKR
B33: 6mer-2-1047 (peptide)
peptide: RHDDKR
B34: 6mer-2-1048 (peptide)
peptide: RIHNRK
B35: 6mer-2-1049 (peptide)
peptide: KMSPRR
B36: 6mer-2-1050 (peptide)
peptide: KPPPRK
B37: 6mer-2-1051 (peptide)
peptide: RKHMRR
B38: 6mer-2-1052 (peptide)
peptide: KAPARK
B39: 6mer-2-1053 (peptide)
peptide: KEMGKK
B40: 6mer-2-1054 (peptide)
peptide: KKNKKR
B41: 6mer-2-1055 (peptide)
peptide: KPDFKR
B42: 6mer-2-1056 (peptide)
peptide: RNDERK
B43: 6mer-2-1057 (peptide)
peptide: RKKKKK
B44: 6mer-2-1058 (peptide)
peptide: RMPWKK
B45: 6mer-2-1059 (peptide)
peptide: RFADRR
B46: 6mer-2-1060 (peptide)
peptide: KTNERK
B47: 6mer-2-1061 (peptide)
peptide: KPPIKK
B48: 6mer-2-1062 (peptide)
peptide: KYNIRK
B49: 6mer-2-1063 (peptide)
peptide: RFNVRK
B50: 6mer-2-1064 (peptide)
peptide: RCMKRR
B51: 6mer-2-1065 (peptide)
peptide: RIANRK
B52: 6mer-2-1066 (peptide)
peptide: KPEHKR
B53: 6mer-2-1067 (peptide)
peptide: RDEIRK
B54: 6mer-2-1068 (peptide)
peptide: RIHVKK
B55: 6mer-2-1069 (peptide)
peptide: KHDMKK
B56: 6mer-2-1070 (peptide)
peptide: RPHVRR
B57: 6mer-2-1071 (peptide)
peptide: RTTWRK
B58: 6mer-2-1072 (peptide)
peptide: KPHWKR
B59: 6mer-2-1073 (peptide)
peptide: KYSWRK
B60: 6mer-2-1074 (peptide)
peptide: RPMGRK
B61: 6mer-2-1075 (peptide)
peptide: RHMERK
B62: 6mer-2-1076 (peptide)
peptide: RYCIRR
B63: 6mer-2-1077 (peptide)
peptide: KMTIKK
B64: 6mer-2-1078 (peptide)
peptide: KDTFRR
B65: 6mer-2-1079 (peptide)
peptide: KCNEKK
B66: 6mer-2-1080 (peptide)
peptide: RKHKKK
B67: 6mer-2-1081 (peptide)
peptide: KYKMRR
B68: 6mer-2-1082 (peptide)
peptide: KYTERR
B69: 6mer-2-1083 (peptide)
peptide: KTKGKR
B70: 6mer-2-1084 (peptide)
peptide: REKPRK
B71: 6mer-2-1085 (peptide)
peptide: RPEIRK
B72: 6mer-2-1086 (peptide)
peptide: KNDWRK
B73: 6mer-2-1087 (peptide)
peptide: KEEMRR
B74: 6mer-2-1088 (peptide)
peptide: RPCEKK
B75: 6mer-2-1089 (peptide)
peptide: RKTDRR
B76: 6mer-2-1090 (peptide)
peptide: KEMHKK
B77: 6mer-2-1091 (peptide)
peptide: RFDNKR
B78: 6mer-2-1092 (peptide)
peptide: RAKFRR
B79: 6mer-2-1093 (peptide)
peptide: KTTDKK

Molecular target: acetylcholine receptor
Assay: SPR, peptide at 10 uM on immobilized AchR

Going from B1 to B2, the Binding affinity (RU) rises from 29 RU to 41 RU.

Going from B3 to B4, the Binding affinity (RU) falls from 40 RU to 24 RU.

First: B5
Second: B6
The Binding affinity (RU) of the first is higher: 23 RU for the first, 21 RU for the second.

First: B7
Second: B8
The Binding affinity (RU) of the first is higher: 39 RU for the first, 22 RU for the second.

Compared with B9, B10 is higher in Binding affinity (RU): 26 RU for the first, 37 RU for the second.

Going from B11 to B12, the Binding affinity (RU) falls from 39 RU to 33 RU.

Going from B13 to B14, the Binding affinity (RU) rises from 32 RU to 41 RU.

First: B15
Second: B16
The Binding affinity (RU) of the first is higher: 40 RU for the first, 28 RU for the second.

Going from B17 to B18, the Binding affinity (RU) falls from 33 RU to 31 RU.

Going from B19 to B20, the Binding affinity (RU) rises from 28 RU to 38 RU.

Going from B21 to B22, the Binding affinity (RU) falls from 39 RU to 25 RU.

First: B23
Second: B24
The Binding affinity (RU) of the first is lower: 26 RU for the first, 33 RU for the second.

Going from B25 to B26, the Binding affinity (RU) rises from 26 RU to 36 RU.

First: B27
Second: B28
The Binding affinity (RU) of the first is lower: 22 RU for the first, 36 RU for the second.

Going from B29 to B30, the Binding affinity (RU) rises from 40 RU to 41 RU.

Going from B31 to B32, the Binding affinity (RU) falls from 41 RU to 39 RU.

Going from B33 to B34, the Binding affinity (RU) falls from 28 RU to 22 RU.

B35 and B36 are the same in Binding affinity (RU): 26 RU for the first, 26 RU for the second.

Compared with B37, B38 is lower in Binding affinity (RU): 24 RU for the first, 23 RU for the second.

First: B39
Second: B40
The Binding affinity (RU) of the first is lower: 34 RU for the first, 43 RU for the second.

Going from B41 to B42, the Binding affinity (RU) falls from 30 RU to 22 RU.

First: B43
Second: B44
The Binding affinity (RU) of the first is higher: 25 RU for the first, 24 RU for the second.

B45 and B46 are the same in Binding affinity (RU): 35 RU for the first, 35 RU for the second.

First: B47
Second: B48
The Binding affinity (RU) of the first is higher: 38 RU for the first, 35 RU for the second.

Going from B49 to B50, the Binding affinity (RU) rises from 24 RU to 39 RU.

First: B51
Second: B52
The Binding affinity (RU) of the first is lower: 27 RU for the first, 29 RU for the second.

First: B53
Second: B54
The Binding affinity (RU) of the first is higher: 29 RU for the first, 26 RU for the second.

Going from B55 to B56, the Binding affinity (RU) falls from 36 RU to 31 RU.

First: B57
Second: B58
The Binding affinity (RU) of the first is lower: 25 RU for the first, 29 RU for the second.

First: B59
Second: B60
The Binding affinity (RU) of the first is lower: 24 RU for the first, 33 RU for the second.

First: B61
Second: B62
The Binding affinity (RU) of the first is lower: 31 RU for the first, 34 RU for the second.

Going from B63 to B64, the Binding affinity (RU) rises from 34 RU to 40 RU.

Going from B65 to B66, the Binding affinity (RU) falls from 40 RU to 23 RU.

First: B67
Second: B68
The Binding affinity (RU) of the first is higher: 32 RU for the first, 31 RU for the second.

Compared with B69, B70 is lower in Binding affinity (RU): 39 RU for the first, 29 RU for the second.

Compared with B71, B72 is lower in Binding affinity (RU): 42 RU for the first, 21 RU for the second.

Going from B73 to B74, the Binding affinity (RU) rises from 21 RU to 39 RU.

Going from B75 to B76, the Binding affinity (RU) falls from 43 RU to 33 RU.

Compared with B77, B78 is lower in Binding affinity (RU): 31 RU for the first, 21 RU for the second.

B79 showed a Binding affinity (RU) of 43 RU.
